B1: Azoarcus group I ribozyme (parent)
chain: GUGCCUUGCGCCGGGAAACCACGCAAGGGAUGGUGUCAAAUUCGGCGAAACCUAAGCGCCCGCCCGGGCGUAUGGCAACGCCGAGCCAAGCUUCGGCGCCUGCGCCGAUGAAGGUGUAGAGACUAGACGGCACCCACCUAAGGCAAACGCUAUGGUGAAGGCAUAGUCCAGGGAGUGGCGAAAGUCACACAAACCGG

The variants in the series derive from B1. Briefly: reverse-splicing fitness (ratio to wild type); higher = more active; in vitro selection; Mg2+ level not given. The procedure, abridged: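 An in vitro group I ribozyme library with randomized positions was T7-transcribed and gel-purified. In triplicate, 10 pmol RNA in EPPS pH 7.5 was reacted with 50 pmoles of a 30-nt RNA substrate for 1 h at 37 °C across several added MgCl2 levels (1–48 mM), then stopped with EDTA. Products were reverse transcribed from a substrate-complementary primer, PCR-amplified and sequenced (HiSeq 4000). Fitness is a variant's read proportion after selection over that before, normalised to wild type.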
With C82G A120G C150U C169G U176A, the reverse-splicing fitness amounted to 0.0177.
For C82G A120G C150U C169G U176G the value was 0.00485.
The value for C82G A120U A145C C169U U176G was 0.00148.
For C82G A120U A145C C169U U176A the value was 0.00266; for C82G A120U A145C C169U U176C, 0.00223.
On to C82G A120U A145U C169G U176G, for which the reverse-splicing fitness amounted to 0.00119.
As for C82G A120U A145U C169G U176A, the reverse-splicing fitness turned out to be 0.00234.
For C82G A120U A145U C169G U176C the value was 0.00292; for C82G A120U A145U C150G C169U U176C, 0.00223.
C82G A120U A145U C150G C169U U176A: the reverse-splicing fitness was determined as 0.003.
Consider C82G A120U A145U C150G C169U U176G, for which the reverse-splicing fitness was found to be 0.00234.
The value for C82G A120G A145U C150U C169A was 0.0199; that for C82G A120G A145U C150U C169G was 0.0343; that for C82G A120G A145U C150U C169U was 0.0183.
For C82G A120U A145G C150U C169A U176G the value was 0.00223.
Consider C82G A120U A145G C150U C169A U176C, for which the reverse-splicing fitness came out at 0.0027.
The value for C82G A120U A145G C150U C169A U176A was 0.00578; that for C82G A120U A145C C150A C169A U176A was 0.0017; that for C82G A120U A145C C150A C169A U176C was 0.00208.
The value for C82G A120U A145C C150A C169A U176G was 0.00157.
For C82G A120G A145U C169G U176C the value was 0.0227.
In the case of C82G A120G A145U C169G U176A, the reverse-splicing fitness turned out to be 0.0157.
The value for C82G A120G A145U C169G U176G was 0.00374; that for C82G A120G A145U C169U was 0.0235; that for C82G A120G A145U C169G was 0.0523.
For C82G A120G A145U C169A the value was 0.0302; for C82G A120U A145G C150U C169G U176G, 0.00186.
The value for C82G A120U A145G C150U C169G U176C was 0.00419.
For the variant C82G A120U A145G C150U C169G U176A, the reverse-splicing fitness is 0.00552.
For C82G A120G A145U C150A C169U U176C the value was 0.0145; for C82G A120G A145U C150A C169U U176G, 0.00418.
The value for C82G A120G A145U C150A C169U U176A was 0.02.
For C82G A120G A145U C150A C169A U176C the value was 0.0141; for C82G A120G A145U C150A C169A U176A, 0.014; for C82G A120G A145U C150A C169A U176G, 0.00465.
In the case of C82G A120U A145U U176G, the reverse-splicing fitness was determined as 0.02.
The value for C82G A120U A145U U176C was 0.116; that for C82G A120U A145U U176A was 0.0782; that for C82G A120G A145U C150G C169G U176A was 0.00742.
For C82G A120G A145U C150G C169G U176G the value was 0.00385.
Consider C82G A120G A145U C150G C169G U176C, for which the reverse-splicing fitness amounted to 0.00564.
For C82G A120U A145C C169A U176C the value was 0.00168; for C82G A120U A145C C169A U176G, 0.00157; for C82G A120U A145C C169A U176A, 0.00185.
On to C82G A120G A145U C150G U176C, for which the reverse-splicing fitness amounted to 0.0103.
For C82G A120G A145U C150G U176G the value was 0.00404.
Take C82G A120G A145U C150G U176A: the reverse-splicing fitness was found to be 0.00666.
The value for C82G A120U A145U C150U C169U U176A was 0.00283; that for C82G A120U A145U C150U C169U U176G was 0.00159; that for C82G A120U A145U C150U C169U U176C was 0.00342.
For C82G A120G C150G C169G U176G the value was 0.00466.
For C82G A120G C150G C169G U176C the value was 0.00511; for C82G A120G C150G C169G U176A, 0.00768; for C82G A120G A145G U176G, 0.00636.
As to C82G A120G A145G U176C, the reverse-splicing fitness is 0.0211.
The value for C82G A120G A145G U176A was 0.0129; that for C82G A120U A145U C150A C169U U176G was 0.00185.
Consider C82G A120U A145U C150A C169U U176A, for which the reverse-splicing fitness was 0.00242.
As to C82G A120U A145U C150A C169U U176C, the reverse-splicing fitness was 0.0022.
Take C82G A120G C150A C169G U176C: the reverse-splicing fitness is 0.0228.
For C82G A120G C150A C169G U176A the value was 0.0215; for C82G A120G C150A C169G U176G, 0.00479; for C82G A120U A145C U176C, 0.0798.
The value for C82G A120U A145C U176G was 0.0211; that for C82G A120U A145C U176A was 0.0712; that for C82G A120U A145U C169U U176A was 0.00334.
As for C82G A120U A145U C169U U176G, the reverse-splicing fitness came to 0.00148.
As to C82G A120U A145U C169U U176C, the reverse-splicing fitness turned out to be 0.00402.
Take C82G A120U A145U C150A C169A: the reverse-splicing fitness was determined as 0.00187.
For C82G A120U A145U C150A C169G the value was 0.00252.
On to C82G A120U A145U C150A C169U, for which the reverse-splicing fitness amounted to 0.00221.
The value for C82G A120G C150U C169G was 0.0318.
The value for C82G A120G C150U C169U was 0.0164.
For C82G A120G C150U C169A, the reverse-splicing fitness was 0.0193.
The value for C82G A120U A145C C150G C169A U176G was 0.00165; that for C82G A120U A145C C150G C169A U176C was 0.00176.
As to C82G A120U A145C C150G C169A U176A, the reverse-splicing fitness turned out to be 0.00219.
For C82G A120U A145C C150G C169G the value was 0.00253; for C82G A120U A145C C150G C169A, 0.00195.
For C82G A120U A145C C150G C169U the value was 0.00302.
For C82G A120U A145U C150G C169G U176A the value was 0.00237; for C82G A120U A145U C150G C169G U176C, 0.0022; for C82G A120U A145U C150G C169G U176G, 0.00182.
With C82G A120U A145U C150U C169A U176C, the reverse-splicing fitness is 0.00197.

These data come from the RNAGym collection of RNA variant scans (doi:10.1093/molbev/msab373).
